Test [1] addresses T1, PurTCp (PurT of Colwellia psychrerythraea) (Colwellia psychrerythraea, UniProt Q484N1).
T1 sequence (Q484N1 1-482): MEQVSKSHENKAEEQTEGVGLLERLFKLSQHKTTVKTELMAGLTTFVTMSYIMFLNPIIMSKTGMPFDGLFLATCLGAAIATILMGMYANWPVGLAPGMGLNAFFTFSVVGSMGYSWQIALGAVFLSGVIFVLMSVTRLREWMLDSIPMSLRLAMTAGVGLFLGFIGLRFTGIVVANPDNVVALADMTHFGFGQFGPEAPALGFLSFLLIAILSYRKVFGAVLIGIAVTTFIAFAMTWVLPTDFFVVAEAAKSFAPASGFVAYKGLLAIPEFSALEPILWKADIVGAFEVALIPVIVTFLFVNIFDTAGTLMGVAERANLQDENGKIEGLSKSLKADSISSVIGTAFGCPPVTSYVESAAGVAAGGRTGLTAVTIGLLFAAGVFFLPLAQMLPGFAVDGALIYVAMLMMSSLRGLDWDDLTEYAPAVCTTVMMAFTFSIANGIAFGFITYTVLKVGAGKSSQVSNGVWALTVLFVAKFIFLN
Kind of test: SPA competition with 3H-xanthine or 3H-guanine. It is filed as binding. To be noted: 0.5 µM 3H-xanthine or 3H-guanine; pH 8.0.

The target of test [2] is PurT of Colwellia psychrerythraea (PurTCp) (Colwellia psychrerythraea 34H). Kind of test: SEC.
Test [3] has the same target. As to the kind of experiment: cross-linking.

Turning to `c1ncc2[nH]cnc2n1` [purine], in test [1], the “% inhibition at 250 μM” value was 2-amino-6-bromopurine, 6-bromopurine, 6-thioguanine, allopurinol, isoguanine, and purine. As usually defined, the stoichiometry N is a count of units in the complex or per binding partner. Regarding “PurT of Colwellia psychrerythraea (PurTCp) (natural protein)”, the stoichiometry N in test [2] and in test [3] was 2 in each case.

The values above are taken from publication PMC10438392 (Proceedings of the National Academy of Sciences of the …, 2023).
